The values below come from article PMC10693628, “Novel WYL domain-containing transcriptional activator acts in response to genotoxic stress in rapidly growing mycobacteria” (Communications Biology, 2023).

Substitutions are numbered along the chain they refer to.

Data set [1] deals with Sumo-SiwR (His6-TEV-Sumo-linker fused to the N-terminus of SiwR, stress-involved WYL domain-containing regulator, MSMEG_1359) (Mycobacterium smegmatis) (UniProt A0QS56). As to the kind of experiment: SEC; analytical gel filtration, Superdex 200 Increase 10/300 GL, buffer GF (50 mM HEPES-KOH pH 7.0, 150 mM NaCl, 0.5 mM TCEP, 1 mM EDTA); SiwR 40 uM protomer, MSMEG_1357 or MSMEG_1356 100 uM protomer; incubated at 37 °C for 20 min, run at 0.5 mL/min at room temperature.

The target of data set [2] is MSMEG_1356 (DUF664 family protein, DinB/YfiT-like putative metalloenzymes superfamily) (Mycobacterium smegmatis) (UniProt A0QS54). Kind of data set: SEC; gel filtration step of the purification, Superdex 75 10/300 GL 24 mL, after dialysis against buffer D (50 mM HEPES-KOH pH 7.0, 150 mM NaCl, 0.5 mM TCEP). (SEC sorts molecules by how far they enter the pores of the column.)

Data set [3] has the same target. Kind of data set: SEC; analytical gel filtration, Superdex 200 Increase 10/300 GL, buffer GF (50 mM HEPES-KOH pH 7.0, 150 mM NaCl, 0.5 mM TCEP, 1 mM EDTA); SiwR 40 uM protomer, MSMEG_1357 or MSMEG_1356 100 uM protomer; incubated at 37 °C for 20 min, run at 0.5 mL/min at room temperature.
The target of data set [4] is T1, Sumo-SiwR (Mycobacterium smegmatis, UniProt A0QS56 1-320).
T1 sequence: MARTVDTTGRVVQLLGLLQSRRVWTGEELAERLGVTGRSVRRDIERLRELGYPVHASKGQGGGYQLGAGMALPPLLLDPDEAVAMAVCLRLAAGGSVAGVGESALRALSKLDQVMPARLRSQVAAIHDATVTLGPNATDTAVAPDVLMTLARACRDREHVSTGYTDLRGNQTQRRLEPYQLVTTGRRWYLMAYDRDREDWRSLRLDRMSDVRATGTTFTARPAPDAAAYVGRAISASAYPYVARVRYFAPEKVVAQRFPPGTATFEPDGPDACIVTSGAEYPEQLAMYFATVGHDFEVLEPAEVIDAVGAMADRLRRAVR
Kind of data set: EMSA; EMSA: 5 mM HEPES-KOH pH 7.0, 30 mM NaCl, 2.5% Ficoll 400K, 1% glycerol, 5 nM probe (10 nM in Fig. 2a legend), 37 °C 15 min; anisotropy: 5 mM HEPES-KOH pH 7, 30. The conditions noted are these: protein: recombinant; tags: His6-TEV-Sumo N-terminal fusion; chain copies: 2; label: 5'-FAM on strand 1; blunt.

Data set [5] concerns the target T1, Sumo-SiwR. As to the kind of experiment: fluorescence anisotropy; EMSA: 5 mM HEPES-KOH pH 7.0, 30 mM NaCl, 2.5% Ficoll 400K, 1% glycerol, 5 nM probe (10 nM in Fig. 2a legend), 37 °C 15 min; anisotropy: 5 mM HEPES-KOH pH 7, 30. To be noted: protein: recombinant, tags: His6-TEV-Sumo N-terminal fusion, chain copies: 2. (Fluorescence polarisation rises when a labelled molecule tumbles more slowly, as on binding a larger partner.)

The target in data set [6] is T2, Sumo-SiwR R204A-R207A (Mycobacterium smegmatis, UniProt A0QS56 1-320, R204A;R207A).
T2 sequence: T1 sequence with R204A, R207A
Described as above. The conditions noted are these: protein: recombinant; tags: His6-TEV-Sumo N-terminal fusion; chain copies: 2; label: FAM.

Data set [7] concerns the target T1, Sumo-SiwR. As to the kind of experiment: fluorescence anisotropy; Kd for SiwR dimer; EMSA: 5 mM HEPES-KOH pH 7.0, 30 mM NaCl, 2.5% Ficoll 400K, 1% glycerol, 5 nM probe (10 nM in Fig. 2a legend), 37 °C 15 min; anisotropy: 5 mM HEPES-KOH pH 7, 30. The conditions noted are these: protein: recombinant; tags: His6-TEV-Sumo N-terminal fusion; chain copies: 2; label: 5'-FAM on strand 2; blunt.

For data set [8], the target named is T2, Sumo-SiwR R204A-R207A. Kind of data set: EMSA; comparable to wild type; EMSA: 5 mM HEPES-KOH pH 7.0, 30 mM NaCl, 2.5% Ficoll 400K, 1% glycerol, 5 nM probe (10 nM in Fig. 2a legend), 37 °C 15 min; anisotropy: 5 mM HEPES-KOH pH 7, 30. To be noted: protein: recombinant; tags: His6-TEV-Sumo N-terminal fusion; chain copies: 2; label: 5'-FAM on strand 2; blunt. For orientation: In EMSA bound probe runs differently from free probe, usually more slowly.

Data set [9] deals with the molecule itself. As to the kind of experiment: SEC; analytical gel filtration, Superdex 200 Increase 10/300 GL, buffer GF (50 mM HEPES-KOH pH 7.0, 150 mM NaCl, 0.5 mM TCEP, 1 mM EDTA); SiwR 40 uM protomer, MSMEG_1357 or MSMEG_1356 100 uM protomer; incubated at 37 °C for 20 min, run at 0.5 mL/min at room temperature.

“Sumo-SiwR (His6-TEV-Sumo-linker fused to the N-terminus of SiwR, stress-involved WYL domain-containing regulator, MSMEG_1359) (from UniProt A0QS56 1-320) (natural protein)”: the stoichiometry N – broadly, a count of units in the complex or per binding partner – in [1] worked out at 2. For “MSMEG_1356 (DUF664 family protein, DinB/YfiT-like putative metalloenzymes superfamily) (from UniProt A0QS54 1-203) (natural protein)”, the stoichiometry N in [2] and in data set [3] was 2 in each case.

B1: fragment d (dsDNA)
DNA 1: GGCATATAGGACAGTTCCGGTCCTAAAAGT
DNA 2: ACTTTTAGGACCGGAACTGTCCTATATGCC
As to B1, the binding result with Sumo-SiwR [4] is reported as “binds”. CGUCAGUCCAGU (ssRNA) [12-nt ssRNA]: in the data set with Sumo-SiwR [5], the binding result is listed as “no binding”.

B2: 5' tailed DNA (dsDNA)
DNA 1: CGTCAGTCCAGT
DNA 2: GTCAGCAGCCTAACTGGACTGACG
Turning to B2, the Kd (commonly the free concentration of one partner at which half of the binding sites on the other are occupied at equilibrium, for simple one-to-one binding) in the data set with Sumo-SiwR [5] (label: 5'-FAM on strand 1, 12 bp duplex, 5' overhang 12 nt on strand 2) amounted to 306 nM.

B3: fragment c (dsDNA)
DNA 1: TGACAGGCATATAGGACAGTTCCGGTCCTAAAAGTGCGGC
DNA 2: GCCGCACTTTTAGGACCGGAACTGTCCTATATGCCTGTCA
Regarding B3, the binding result with Sumo-SiwR [4] is “binds”.

B4: fragment a (dsDNA)
DNA 1: GTGACCCACCCTGACAGGCATATAGGACAGT
DNA 2: ACTGTCCTATATGCCTGTCAGGGTGGGTCAC
Turning to B4, in the data set with Sumo-SiwR [4], the binding result is on record as “no binding”. For the molecule CGTCAGTCCAGT (ssDNA) [12-nt ssDNA], in the data set with Sumo-SiwR [5] (label: 5'-FAM), the Kd came to 178 nM.

B5: fragment b (dsDNA)
DNA 1: TCCGGTCCTAAAAGTGCGGCAGACTTGTCGC
DNA 2: GCGACAAGTCTGCCGCACTTTTAGGACCGGA
With B5, the binding result with Sumo-SiwR [4] is “no binding”. TTTTTTTTTTTTTTTTTTTT (ssDNA) [polyT20]: in the data set with Sumo-SiwR R204A-R207A [6], the binding result was “no binding”. Further, the Kd with Sumo-SiwR [5] (label: FAM) was found to be 182 nM.

B6: 3' tailed DNA (dsDNA)
DNA 1: GCAGTCAGGTCAATCCGACGACTG
DNA 2: TGACCTGACTGC
B6: the Kd with Sumo-SiwR [5] (label: FAM on strand 1, 12 bp duplex, 3' overhang 12 nt on strand 1) was determined as 702 nM.

B7: DNA fork mimic (dsDNA)
DNA 1: CGTCAGTCCAGTATCCGACGACTG
DNA 2: CAGTCGTCGGATTGACCTGACTGC
Regarding B7, in the data set with Sumo-SiwR [5] (label: 5'-FAM on strand 1, fork 1:2, 12 bp duplex with 12-nt 5' tail (strand 1) and 12-nt 3' tail (strand 2)), the Kd was 898 nM.

B8: msmeg_1357-56 promoter (dsDNA)
DNA 1: TGACCCACCCTGACAGGCATATAGGACAGTTCCGGTCCTAAAAGTGCGGCAGACTTGTCG
DNA 2: CGACAAGTCTGCCGCACTTTTAGGACCGGAACTGTCCTATATGCCTGTCAGGGTGGGTCA
Regarding B8, in the data set with Sumo-SiwR [7], the Kd was 651 nM. Also, the binding result in the data set with Sumo-SiwR R204A-R207A [8] is on record as “binds”.

B9: MSMEG_1357 (DinB_2 family protein, DinB/YfiT-like putative metalloenzymes superfamily) (natural protein, Mycobacterium smegmatis, UniProt A0QS55 1-175, looked up)
chain: MDIDLIADQLDFHWTHQLRPRLDGLTDDEYFWQPVPGCWTVHADGSIDFSYPEPQPTPFTTIAWRLAHVIVGVLAMRNHSHFGGPPADYQTWPYATDAKTALEQLDDAHRNWITGVRALSEDDLQRPVGPAEGPWADHPMSELVLHINREVIHHGAEIACIRDLYAHTNNTAEEN
notes: MSMEG_1357, DinB_2 family (pfam12867) protein of Mycobacterium smegmatis; expressed from a pET21-His6-TEV-MSMEG_1357 plasmid; The construct name puts His6-TEV before the protein; No TEV cleavage is described; also called His6-TEV-MSMEG_1357
As to B9, in data set [9], the “stoichiometry N” value came to 2.

With CGTCAGTCCAGT (ssDNA, 8-oxoguanine at position 6) [12-nt ssDNA 8-oxoG], the Kd with Sumo-SiwR [5] (label: 5'-FAM) was 227 nM.
